# Assay results as given in patent US20240261333A1, “NOVEL TARGETS FOR ENHANCING ANTI-TUMOR IMMUNITY” (THE BROAD INSTITUTE, INC., priority 2021, published 2024).
# How the values were obtained:
# UBAP2L (human) = UBAP2L (human) (UniProt Q14157); experiment: co-IP, IgG control, lysate of cells with N-FLAG B3GNT2; mass spectrometry
# ACTR3 = ACTR3 (UniProt P61158); experiment: co-IP with mouse IgG control, mass spectrometry; lysate of N-FLAG B3GNT2 cells
# AHNAK = AHNAK (UniProt Q09666); experiment: as above
# ATP5F1B = ATP5F1B (UniProt P06576); experiment: as above
# Chain of ATP5F1B (P06576 48-529 limits assumed): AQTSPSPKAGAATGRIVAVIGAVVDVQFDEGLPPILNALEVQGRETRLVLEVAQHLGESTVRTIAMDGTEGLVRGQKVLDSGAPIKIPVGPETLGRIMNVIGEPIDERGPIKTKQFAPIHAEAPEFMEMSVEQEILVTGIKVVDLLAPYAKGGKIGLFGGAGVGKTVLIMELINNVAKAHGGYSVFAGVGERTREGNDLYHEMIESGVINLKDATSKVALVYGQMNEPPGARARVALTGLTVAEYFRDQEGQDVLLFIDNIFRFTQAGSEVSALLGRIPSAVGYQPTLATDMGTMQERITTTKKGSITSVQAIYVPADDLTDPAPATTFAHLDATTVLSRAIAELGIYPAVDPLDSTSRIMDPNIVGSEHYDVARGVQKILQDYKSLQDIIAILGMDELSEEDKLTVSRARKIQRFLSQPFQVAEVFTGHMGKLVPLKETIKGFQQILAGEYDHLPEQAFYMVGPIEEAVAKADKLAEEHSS
# ATXN2L = ATXN2L (UniProt Q8WWM7); experiment: as above
# Chain of ATXN2L (Q8WWM7 whole entry): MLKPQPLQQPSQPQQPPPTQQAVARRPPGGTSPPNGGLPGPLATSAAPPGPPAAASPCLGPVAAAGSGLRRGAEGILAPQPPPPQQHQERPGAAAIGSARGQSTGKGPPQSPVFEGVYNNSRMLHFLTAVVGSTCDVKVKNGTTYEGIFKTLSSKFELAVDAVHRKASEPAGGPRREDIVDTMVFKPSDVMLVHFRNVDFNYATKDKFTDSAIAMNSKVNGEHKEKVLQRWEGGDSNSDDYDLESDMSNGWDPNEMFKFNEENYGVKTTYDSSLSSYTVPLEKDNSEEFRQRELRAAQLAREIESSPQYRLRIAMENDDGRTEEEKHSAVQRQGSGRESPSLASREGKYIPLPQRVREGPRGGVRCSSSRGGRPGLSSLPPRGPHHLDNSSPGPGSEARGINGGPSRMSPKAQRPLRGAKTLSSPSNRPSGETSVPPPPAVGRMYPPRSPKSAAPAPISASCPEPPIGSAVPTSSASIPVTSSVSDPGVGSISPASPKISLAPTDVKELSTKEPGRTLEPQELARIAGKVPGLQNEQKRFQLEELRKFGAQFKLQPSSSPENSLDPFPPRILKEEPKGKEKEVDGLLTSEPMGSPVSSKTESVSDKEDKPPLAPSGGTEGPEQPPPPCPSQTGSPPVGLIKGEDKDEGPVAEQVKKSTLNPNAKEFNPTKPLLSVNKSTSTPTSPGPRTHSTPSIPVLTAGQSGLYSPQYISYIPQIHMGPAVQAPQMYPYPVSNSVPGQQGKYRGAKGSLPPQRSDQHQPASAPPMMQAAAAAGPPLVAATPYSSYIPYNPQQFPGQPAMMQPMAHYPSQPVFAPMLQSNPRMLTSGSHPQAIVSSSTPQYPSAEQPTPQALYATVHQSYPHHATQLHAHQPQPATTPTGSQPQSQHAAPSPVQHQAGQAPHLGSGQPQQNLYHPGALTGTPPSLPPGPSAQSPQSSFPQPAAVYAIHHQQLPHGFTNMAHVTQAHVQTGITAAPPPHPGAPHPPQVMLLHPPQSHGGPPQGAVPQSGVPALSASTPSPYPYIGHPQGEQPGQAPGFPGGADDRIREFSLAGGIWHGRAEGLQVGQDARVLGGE
# ENO1 = ENO1 (UniProt P06733); experiment: as above
# Chain of ENO1 (P06733 2-434 limits assumed): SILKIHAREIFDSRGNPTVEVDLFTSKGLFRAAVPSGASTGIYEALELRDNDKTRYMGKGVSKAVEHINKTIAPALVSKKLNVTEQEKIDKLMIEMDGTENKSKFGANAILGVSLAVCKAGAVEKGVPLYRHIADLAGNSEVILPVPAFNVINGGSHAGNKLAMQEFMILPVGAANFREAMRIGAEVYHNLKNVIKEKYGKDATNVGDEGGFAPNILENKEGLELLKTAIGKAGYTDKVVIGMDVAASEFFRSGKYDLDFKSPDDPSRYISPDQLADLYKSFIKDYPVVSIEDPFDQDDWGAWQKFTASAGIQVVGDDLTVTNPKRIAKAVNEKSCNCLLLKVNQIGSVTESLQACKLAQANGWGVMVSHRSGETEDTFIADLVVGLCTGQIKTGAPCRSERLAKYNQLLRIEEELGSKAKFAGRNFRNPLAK
# HBA1 = HBA1 (UniProt P69905); experiment: as above
# Chain of HBA1 (P69905 2-142 limits assumed): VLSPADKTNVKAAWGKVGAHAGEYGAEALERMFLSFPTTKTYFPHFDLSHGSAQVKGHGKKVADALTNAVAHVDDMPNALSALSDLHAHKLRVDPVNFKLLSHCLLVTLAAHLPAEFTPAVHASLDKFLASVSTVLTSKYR
# HNRNPF = HNRNPF (UniProt P52597); experiment: as above
# LTF = LTF (UniProt P02788); experiment: as above
# LYZ = LYZ (UniProt P61626); experiment: as above
# Chain of LYZ (P61626 19-148 limits assumed): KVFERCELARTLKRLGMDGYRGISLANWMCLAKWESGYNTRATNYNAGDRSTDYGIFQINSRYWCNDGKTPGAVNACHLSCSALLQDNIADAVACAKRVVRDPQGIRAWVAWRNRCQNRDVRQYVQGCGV
# PCMT1 = PCMT1 (UniProt P22061); experiment: as above
# Chain of PCMT1 (P22061 2-227 limits assumed): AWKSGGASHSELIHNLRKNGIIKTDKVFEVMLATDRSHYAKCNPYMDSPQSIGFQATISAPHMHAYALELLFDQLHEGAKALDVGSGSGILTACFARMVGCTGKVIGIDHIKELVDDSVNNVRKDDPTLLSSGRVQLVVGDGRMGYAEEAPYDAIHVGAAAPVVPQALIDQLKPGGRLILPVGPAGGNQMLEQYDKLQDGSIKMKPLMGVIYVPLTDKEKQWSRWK
# PPIA = PPIA (UniProt P62937); experiment: as above
# Chain of PPIA (P62937 2-165 limits assumed): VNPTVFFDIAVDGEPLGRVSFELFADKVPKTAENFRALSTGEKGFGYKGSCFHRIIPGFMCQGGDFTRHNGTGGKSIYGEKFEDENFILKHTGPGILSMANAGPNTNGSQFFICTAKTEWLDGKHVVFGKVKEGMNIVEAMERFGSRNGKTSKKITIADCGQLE
# RCC2 = RCC2 (UniProt Q9P258); experiment: as above
# RPL10A = RPL10A (UniProt P62906); experiment: as above
# RPL11 = RPL11 (UniProt P62913); experiment: as above
# RPL21 = RPL21 (UniProt P46778); experiment: as above
# RPL31 = RPL31 (UniProt P62899); experiment: as above
# RPL35A = RPL35A (UniProt P18077); experiment: as above
# RPL36A = RPL36A (UniProt P83881); experiment: as above
# RPLP2 = RPLP2 (UniProt P05387); experiment: as above
# Chain of RPLP2 (P05387 whole entry): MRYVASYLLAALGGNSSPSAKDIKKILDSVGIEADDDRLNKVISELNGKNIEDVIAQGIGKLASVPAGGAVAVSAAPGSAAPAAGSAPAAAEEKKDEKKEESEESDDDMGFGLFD
# RPN1 = RPN1 (UniProt P04843); experiment: as above
# RPS11 = RPS11 (UniProt P62280); experiment: as above
# RPS15A = RPS15A (UniProt P62244); experiment: as above
# RPS17 = RPS17 (UniProt P08708); experiment: as above
# S100A8 = S100A8 (UniProt P05109); experiment: as above
# Chain of S100A8 (P05109 whole entry): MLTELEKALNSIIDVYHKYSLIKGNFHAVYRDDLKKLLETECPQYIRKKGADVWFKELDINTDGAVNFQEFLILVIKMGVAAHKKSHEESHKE
# S100A9 = S100A9 (UniProt P06702); experiment: as above
# Chain of S100A9 (P06702 whole entry): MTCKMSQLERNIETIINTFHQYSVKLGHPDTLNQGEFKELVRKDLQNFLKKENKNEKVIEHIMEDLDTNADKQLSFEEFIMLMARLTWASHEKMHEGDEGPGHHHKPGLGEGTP
# SERPINB12 = SERPINB12 (UniProt Q96P63); experiment: as above
# Chain of SERPINB12 (Q96P63 other isoform, or with tags, fused parts or gaps limits assumed): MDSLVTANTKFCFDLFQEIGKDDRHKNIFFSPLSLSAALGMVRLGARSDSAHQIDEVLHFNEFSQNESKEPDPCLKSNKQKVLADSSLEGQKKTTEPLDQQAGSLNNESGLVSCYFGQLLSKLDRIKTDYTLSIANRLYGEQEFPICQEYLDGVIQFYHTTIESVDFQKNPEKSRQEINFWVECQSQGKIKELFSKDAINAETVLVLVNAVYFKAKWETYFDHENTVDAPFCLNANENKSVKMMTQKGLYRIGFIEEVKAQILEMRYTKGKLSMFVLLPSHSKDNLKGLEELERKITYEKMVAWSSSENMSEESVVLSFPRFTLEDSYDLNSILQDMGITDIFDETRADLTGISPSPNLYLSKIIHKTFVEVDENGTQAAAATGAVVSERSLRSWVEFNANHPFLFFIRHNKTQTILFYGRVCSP
# SPRR2E = SPRR2E (UniProt P22531); experiment: as above
# Chain of SPRR2E (P22531 whole entry): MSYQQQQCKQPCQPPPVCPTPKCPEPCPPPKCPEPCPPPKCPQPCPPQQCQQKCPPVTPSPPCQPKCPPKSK
# SSR1 = SSR1 (UniProt P43307); experiment: as above
# Chain of SSR1 (P43307 19-286 limits assumed): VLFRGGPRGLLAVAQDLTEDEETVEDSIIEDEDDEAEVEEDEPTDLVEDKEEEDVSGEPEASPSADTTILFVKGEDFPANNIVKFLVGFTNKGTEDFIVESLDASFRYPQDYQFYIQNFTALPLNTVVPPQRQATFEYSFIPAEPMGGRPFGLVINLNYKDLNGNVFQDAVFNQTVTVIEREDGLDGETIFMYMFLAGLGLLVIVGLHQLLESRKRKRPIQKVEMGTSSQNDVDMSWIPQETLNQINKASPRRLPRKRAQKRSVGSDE
# STRAP = STRAP (UniProt Q9Y3F4); experiment: as above
# Chain of STRAP (Q9Y3F4 whole entry): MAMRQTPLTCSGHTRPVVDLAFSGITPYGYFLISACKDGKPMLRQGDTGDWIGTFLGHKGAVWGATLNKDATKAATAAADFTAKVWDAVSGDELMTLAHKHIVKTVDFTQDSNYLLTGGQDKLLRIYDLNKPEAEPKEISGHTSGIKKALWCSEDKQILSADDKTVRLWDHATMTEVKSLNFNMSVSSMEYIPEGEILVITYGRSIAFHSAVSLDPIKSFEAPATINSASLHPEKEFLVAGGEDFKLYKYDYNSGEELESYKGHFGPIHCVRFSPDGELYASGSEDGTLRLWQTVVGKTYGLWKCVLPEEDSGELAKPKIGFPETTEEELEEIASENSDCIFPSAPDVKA
# TPI1 = TPI1 (UniProt P60174); experiment: as above
# Chain of TPI1 (P60174 2-249 limits assumed): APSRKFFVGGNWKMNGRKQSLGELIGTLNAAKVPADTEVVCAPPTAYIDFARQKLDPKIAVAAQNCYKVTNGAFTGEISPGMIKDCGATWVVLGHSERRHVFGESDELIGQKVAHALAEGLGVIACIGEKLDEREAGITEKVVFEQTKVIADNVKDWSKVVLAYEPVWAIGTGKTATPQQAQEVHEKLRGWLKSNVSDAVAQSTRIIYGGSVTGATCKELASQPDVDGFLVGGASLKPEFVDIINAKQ
# TRIM21 = TRIM21 (UniProt P19474); experiment: as above
# Chain of TRIM21 (P19474 whole entry): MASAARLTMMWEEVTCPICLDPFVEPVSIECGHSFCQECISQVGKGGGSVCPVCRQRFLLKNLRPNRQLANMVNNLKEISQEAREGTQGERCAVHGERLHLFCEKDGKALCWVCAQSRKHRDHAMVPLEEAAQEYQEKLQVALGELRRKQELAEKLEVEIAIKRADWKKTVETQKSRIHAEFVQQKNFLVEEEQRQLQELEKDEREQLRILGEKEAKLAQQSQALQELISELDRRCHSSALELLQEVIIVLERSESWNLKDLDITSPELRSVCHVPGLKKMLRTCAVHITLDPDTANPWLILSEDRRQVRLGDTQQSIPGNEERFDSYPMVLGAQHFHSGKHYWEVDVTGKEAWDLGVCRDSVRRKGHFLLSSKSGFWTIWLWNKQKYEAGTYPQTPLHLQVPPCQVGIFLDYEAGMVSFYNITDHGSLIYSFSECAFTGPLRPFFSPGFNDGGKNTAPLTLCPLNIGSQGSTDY
# YBX3 = YBX3 (UniProt P16989); experiment: as above
substance,measurement,setting,value
IgG control (Millipore Sigma 12-371) (antibody),co-IP mass spectrometry count,UBAP2L (human),20
same,co-IP mass spectrometry count,ACTR3,3
same,co-IP mass spectrometry count,AHNAK,0
same,co-IP mass spectrometry count,ATP5F1B,0
same,co-IP mass spectrometry count,ATXN2L,3
same,co-IP mass spectrometry count,ENO1,2
same,co-IP mass spectrometry count,HBA1,3
same,co-IP mass spectrometry count,HNRNPF,0
same,co-IP mass spectrometry count,LTF,6
same,co-IP mass spectrometry count,LYZ,4
same,co-IP mass spectrometry count,PCMT1,0
same,co-IP mass spectrometry count,PPIA,0
same,co-IP mass spectrometry count,RCC2,0
same,co-IP mass spectrometry count,RPL10A,4
same,co-IP mass spectrometry count,RPL11,3
same,co-IP mass spectrometry count,RPL21,5
same,co-IP mass spectrometry count,RPL31,0
same,co-IP mass spectrometry count,RPL35A,0
same,co-IP mass spectrometry count,RPL36A,2
same,co-IP mass spectrometry count,RPLP2,3
same,co-IP mass spectrometry count,RPN1,0
same,co-IP mass spectrometry count,RPS11,8
same,co-IP mass spectrometry count,RPS15A,2
same,co-IP mass spectrometry count,RPS17,3
same,co-IP mass spectrometry count,S100A8,4
same,co-IP mass spectrometry count,S100A9,0
same,co-IP mass spectrometry count,SERPINB12,0
same,co-IP mass spectrometry count,SPRR2E,3
same,co-IP mass spectrometry count,SSR1,0
same,co-IP mass spectrometry count,STRAP,0
same,co-IP mass spectrometry count,TPI1,2
same,co-IP mass spectrometry count,TRIM21,0
same,co-IP mass spectrometry count,YBX3,0
